Assay: label from the status in PepcDB records
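Further: failed if final PepcDB status was selected cloned or expressed and not failed if soluble or beyond.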

| Sequence | protein production |
| --- | --- |
| MELKDYYAILGVQPTDDLKTIKTAYRRLARKYHPDVSKENDAEAKFKDLAEAWEVLKDEQRRAEYDQLWQHRNDPGFGRQRQTHEQSYSQQDFDDIFSSMFGQQAHQRRRQHAARGHDLEIEVAVFLEETLAEQTRTISYNLPVYNVFGMIESETPKTLNVKIPAGVVDGQRIRLKGQGTPGENGGPNGDLWLVIHIAPHPLFDIVGHNLEIVLPLAPWEAALGAKVTVPTLKESILLTVPPGSQAGQRLRIKGKGLVSKTHTGDLFAVIKIVMPTKPDEKARELWQQLAAAEASFDPRKTWGKA | not failed |
| MELKHGYYHLIAILTVAIWGLTFISTKVLINHGLTPQEIFFYRFLIAYLGIWVISPKRLFTNNWQDELWLVAGGIFGGSLYFFTENTALGITQASNVSFIICTAPLLTTILSLLFYKSEKASKGLIYGSLLALMGVGLIVFNGSFVLKISPIGDLLTLLAALSWAFYSLIIKKMAGRYPTIFITRKIFFYGVLTILPAFLLHPLHPDTAVLLQPAVLFNLLFLAVLASLICYVLWNVVLKQLGTVRASNYIYLNPLVTMIASFLILDEKITLVALGGAACIVCGVYWAEKK | failed |
| MELKNKKLSLWEAVSMAVGVMIGASIFSIFGVGAKIAGRNLPETFILSGIYALLVAYSYTKLGAKIVSNAGPIAFIHKAIGDNIITGALSILLWMSYVISIALFAKGFAGYFLPLINAPINTFNIAITEIGIVAFFTALNFFGSKAVGRAEFFIVLVKLLILGLFIFAGLITIHPSYVIPDLAPSAVSGMIFASAIFFLSYMGFGVITNASEHIENPKKNVPRAIFISILIVMFVYVGVAISAIGNLPIDELIKASENALAVAAKPFLGNLGFLLISIGALFSISSAMNATIYGGANVAYSLAKDGELPEFFERKVWFKSTEGLYITSALGVLFALLFNMEGVASITSAVFMVIYLFVILSHYILIDEVGGRKEIVIFSFIVVLGVFLLLLYYQWITNRFVFYGIIATFIGVLIFEIIYRKVTKRTFSNNMYVKS | not failed |
| MELKVWVDGVQRIVCGVTEVTTCQEVVIALAQAIGRTGRYTLIEKWRDTERHLAPHENPIISLNKWGQYASDVQLILRRTGP | not failed |
| MELLRPEATVLSLGRRVLSFDREGRPYHYFREGKTYKRALDGSLHLRYREGERRRRRLAPEEALGVYQEVLDLAEAHLRDERRREEVLRWTPEGLLDPTPYRRAYAWPVSILPPDAYLSVVLQATTGCTWNRCAFCSFYQDRPFQKRTPEAFREHIQAVLALLGRGRLLRRGVFLADGNALALSEPLLPLLELVRAHFPGEPVMGFLDLFTGLKKAPSWWERLGGMGLRRVYIGLETGHAPLLALLRKPGHPKEVLPLVRALKAAGLSVGVILMVGAGGKAFAEAHFRESLALLAELPLGRGDVVYLSPFREDPGTPYAALGLAPLEDLEGELQRWAQAVRRLGLRASRYEIREFLY | failed |
| MELLSIVIFGLLIVVSPSADFVLVFKNSAMHSRKAGMLTAIGIGAGVCVHISYSIIGISQLIANNAGLFSLVKYVGAAYLIYIGIAGLLSAKLTLDYGTQLIKPVENRKYIMQGFLCNVLNPKTMIFFLSVFSQLISSHSDSLAFVISYGVYIAVLHGIWFCIVAYLVTSAKATRVLKRFGHRINQACGVGLITFGVILSTND | failed |
| MELMKKFTSYTCSPIFVVVACAICLLVGFSINSSIIEIFASVMGIINVWLLSREKVSNFIFGIITVVAYLYIYYNTGLYALAVLACFQVGFNIFGWYYWVKNSDQEDNVVTSGLTKKGQILWTIIILAAWAVWGYVEINILHAQNAILDSLTAVLGLVAQYWLSKKLYENWILWILSNILFIIIYILNGYYVMLILVAIQLILSISGLLEWYASFKEQGENKLTL | failed |
| MELNAVKSSYARWAPIYDKTFGAITNVGRHAAVDYINAHDATELLEVGVGTGLSLPNYRPGLKVTGIDFSEEMLAKARAKVESLGLGHVQSLRQMDARDLDFADASFDVVAAMHIISVVPEPERVMAEMARVCKPGGLIVITNHFARDSGMLARVERFAAPFANLLGWHPDFEISSVLKQPDLTVIERKSLPPMGMMTFLVLQKCELEHHHHHH | not failed |
| MELNAVKSSYARWAPIYDKTFGAITNVGRHAAVDYINAHDATELLEVGVGTGLSLPNYRPGLKVTGIDFSEEMLAKARAKVESLGLGHVQSLRQMDARDLDFADASFDVVAAMHIISVVPEPERVMAEMARVCKPGGLIVITNHFARDSGMLARVERFAAPFANLLGWHPDFEISSVLKQPLEHHHHHH | failed |
| MELQHGQQRHIFEIRLFPEFDKAGMLKSILSVDRDVTATRQGERLLAEENEVLEMIAGNHPLPQTLEQICQMMESQQPGSMCSVLLLEEDGQSLRFAAGLSLPPAYRKLSERVAVGPSVGSCGTAAHWKRTIVVDDIQTSPLWAHALHKVQPFGLRACWSMPIFSSDRQLLGTLATYYREPRSPSQEELALAQRITRIIAIALQRDGHEKQLYRLATQDGLTELNNRRQFIELADREIERSRRHGSRMSVLMMDLDHFKDINDHYGHAVGDEVIRHFSQVCREVLRASDLCGRLGGEEFAAVLPDTGLDDARQVAERLRSLASSARLSAVSGSLGYTVSIGVAERHADETDIDEVLGRADKQLYQAKRDGRNRVSGAAPAHCG | failed |
| MELSQRQERIIEIVKTKGPITGEQIADKLNLTRATLRPDLAILTMSGFLEARPRVGYYYSGKSKGKFFNEKLRQFEVKDYMSQPVVLRENTTVYDAICTIFLEDVSTLFIINEDNDFVGVCSRKDLLRASMIGADIHTVPISVNMTRMPNVTYLEESELVIYAADRMIEKEIDSIPIVRKKDNQKYEVIGRISKTTIAKLLVALYKE | not failed |
| MELTELLDIGRQERSQQKPVQIRCCTAAGCLSANSQAVQQQLEQAVKAEGLEGEVQVSGVGCMRLCCQGPLVEVEGSGEEKTKQRLYEKVTPEDASAIIGAL | failed |
| MELVFDKDGLSAYLEEVFPQIQGEFSIDALAKGEITMRLNVQERHLRPGGTVSGPSMFALADVSVYALVLAHLGREALAVTTNASLDFMRKPESGRDLLGQARLLKLGRTLAVGDILLFSEGMEAPVARSTMTYSIPPKR | not failed |
| MEMNRRRSRGFMIAKLMPFCKAVKSPTPSQDLYNNVHYTSSTTTSYARQPDFNNYVTATTPLPPKVSFLLQPSLAPEGKDMEKKLNMMAEKLIGRGINGVDDCVDARAASYISSVRERFKADQYCEKLTTVISLDDEN | failed |
| MENDDVMTPPWLTPMLRADYFVTCSIHSQSSKSECNLFCLDCSGNAFCSSCLAHHRTHRVIQIRRSSYHNVVRVSEIQKHIDISCIQTYVINSAKIFFLNARPQCRTGKSLNKTCQICSRNLLDSFLFCSLACKLEGVKNGEDPNLTLFHSGKSDDSSKIINTGICSRLIDGISIAVDDQRSETAGVLSPETPSIESHRNYPMKSRRKGIPQRAPF | failed |
| MENEENSAREQEADDFLHIASVKEDWGGDGRGRMNLSGRRTAIAKEYLPRQYQFFDTNTVMEKQGWRVRGMPDNIAPGSRRLLTWHDSGASTSRVVLPPKFEAPSGIFTADLEIFVIKGAIQLGEWQLNKHSYSFIPAGVRIGSWKVLGGEEAEILWMENGSVPLEYKYAQEDHPDARLSDFIPALDSKLLPWGKADTVQFVQANKKWLRKDINGGGVWLLAILPHFDNKYQMIQPYNEEGYCLTGYCDVGDYRIVKDHYWYCPSFSTLPRHITDDGGLFFVRVDRDLSKVATVLSYAPQDT | not failed |
| MENETVSELNQTQLQPRAVVALEYQVVTILLVLIICGLGIVGNIMVVLVVMRTKHMRTPTNCYLVSLAVADLMVLVAAGLPNITDSIYGSWVYGYVGCLCITYLQYLGINASSCSITAFTIERYIAICHPIKAQFLCTFSRAKKIIIFVWAFTSLYCMLWFFLLDLNISTYKDAIVISCGYKISRNYYSPIYLMDFGVFYVVPMILATVLYGFIARILFLNPIPSDPKENSKTWKNDSTHQNTNLNVNTSNRCFNSTVSSRKQVTKMLAVVVILFALLWMPYRTLVVVNSFLSSPFQENWFLLFCRICIYLNSAINPVIYNLMSQKFRAAFRKLCNCKQKPTEKPANYSVALNYSVIKESDHFSTELDDITVTDTYLSATKVSFDDTCLASEVSFSQS | failed |
| MENGLAQGIGGIAFLVGVMAFWQKDDLRFRYQMMAFCFIMGVHFALLGATVAAIGVVINGIRSFASIKTQSRKVMWFFIALMWLMTLPNMSHFFELLTVIGSSVATWALFSKQGIALRSLILFNSFCWVSHNLWLGSIGGSLVESTFIVTNLLTIYRLFHAQERISQTQNNQFLASNTESSTD | failed |

Source: a protein production outcome set (Wang et al. 2014)
